Read-outs that look alike come from different tables or passages of the source.
Experiments:
[1] = system: IL-28RA mRNA; assay: Semi-quantitative RT-PCR of IL-28RA, IFNAR2 and CRF2-4 mRNA; format: cell-based, human; details: HepG2 cells + cytokine
Experimental: In order to further examine the mRNA distribution for IL-28RA, semi-quantitative RT-PCR was performed using the SDS 7900HT system (Applied Biosystems, CA). One-step RT-PCR was performed using 100 ng total RNA for each sample and gene-specific primers. A standard curve was generated for each primer set using Bjab RNA and all sample values were normalized to HPRT. The normalized values for IFNAR2 and CRF2-4 are also shown.

[2] = system: HCV replicon; details: replicon clones; IFNα at 10 IU/ml; cited from earlier work
[3] = system: Human Daudi cells; assay: Daudi cell proliferation (Alamar Blue); format: cell-based; details: 1000 ng/ml to 0.5 ng/ml; 72 h
Experimental: Human Daudi cells were suspended in RPMI+10% FBS at 50,000 cells/milliliter and 5000 cells were plated per well in a 96 well plate. […] IL-29-CEE was used at a concentration range of from 1000 ng/ml to 0.5 ng/ml. […] IFN-α2a was used at a concentration range of from 62 ng/ml to 0.03 ng/ml. Cells were incubated for 72 h at 37° C. […] Plates were farther incubated at 37° C., 5% CO2, for 24 hours.

[4] = system: human peripheral blood mononuclear cells; assay: Induction of IL-28A, IL-29, IL-28B RNA in PBMCs by poly I:C and viral infection; details: poly I:C 100 μg/ml, 15 h
[5] = system: encephelomyocarditis virus; assay: Antiviral assay: cytopathic effect in HeLa cells; format: cell-based, human
[6] = system: encephelomyocarditis virus; assay: Antiviral assay: cytopathic effect in L929 cells; format: cell-based, mouse
[7] = system: human Daudi B lymphoid cells; assay: Induction of interferon-stimulated genes in Daudi cells (RT-PCR); format: cell-based; details: 72 hours, conditioned medium from Sf9 cells
Source text: Interaction of type 1 interferons with their specific receptor leads to induction of a number of genes responsible for their antiviral/antiproliferative activity. These include 2′-5′ oligoadenylate synthetase (2-OAS), double-stranded RNA dependent Pkr kinase (Pkr), phospholipid scramblase, and intercellular adhesion molecule-1 (ICAM-1). Induction of genes with as yet unknown function, such as a 56 kDa interferon stimulated gene product (ISG-56k), also occurs. […] Conditioned medium from Sf9 cells infected with wild-type baculovirus was used as a negative control. Following treatment cells were collected and lysed for isolation of total RNA. One microgram of total RNA was converted to cDNA using reverse transcriptase and used as a template for polymerase chain reaction using oligonucleotide primers specific for the human interferon-stimulated genes described above. Oligonucleotide primers for human […] (G3PDH) were used as a non-interferon stimulated gene control.

[8] = system: BVDV; assay: BVDV CPE inhibition assay in MDBK cells; format: cell-based; details: MDBK bovine kidney cells
Experimental: IFNα and RIBAVIRIN® were used as positive controls. Test sample were added at the time of viral infection.

[9] = system: ISG gene expression (OAS, Pkr, Mx1); assay: ISG gene induction in liver, spleen and blood of injected mice; format: in vivo, mouse; details: C57BL/6 mice; i.p or i.v; 10 μg-250 μg
Experimental: In addition, E. coli derived IL-29 was also tested in in vivo assays as described above using MetIL-29C172S-PEG and MetIL-29-PEG. At various time points and at different doses, ISG gene induction was measured in the blood, spleen and livers of the mice.
Mice were sacrificed at various time points (1 hr-48 hr). Spleens and livers were isolated from mice, and RNA was isolated. RNA was also isolated from the blood cells. The cells were pelleted and RNA isolated from pellets using RNAEasy®-kit (Qiagen). RNA was treated with DNase (Amicon) to rid RNA of any contaminating DNA. cDNA was generated using Perkin-Elmer RT mix (Perkin-Elmer). ISG gene induction was measured by real-time PCR using primers and probes specific for mouse OAS, Pkr and M×1. To obtain quantitative data, HPRT real-time PCR was duplexed with ISG PCR. A standard curve was calculated using known amounts of IFN-stimulated mouse PBLs. All data are shown as expression relative to internal HPRT expression.
Results shown are fold expression relative to HPRT gene expression. […] The data shown is the average expression from 5 different animals/group.
Data shown is fold expression over HPRT expression from livers of mice. Similar data was obtained from blood and spleens of mice.

[10] = system: adenovirus; format: cell-based; details: A549 cells
[11] = system: parainfluenza virus; format: cell-based; details: MA-104 cells
[12] = system: respiratory syncytial virus; format: cell-based; details: MA-104 cells
[13] = system: rhino virus; format: cell-based
[14] = system: coxsackie virus; format: cell-based; details: Coxsackie B4 virus, KB cells
[15] = system: influenza virus; format: cell-based; details: Influenza (type A [H3N2])
[16] = system: vaccinia virus; format: cell-based; details: Vero cells
[17] = system: west nile virus; format: cell-based; details: Vero cells
[18] = system: dengue virus; format: cell-based; details: Vero cells
[19] = system: venezuelan equine encephalitis virus; format: cell-based; details: Vero cells
[20] = system: pichinde virus; format: cell-based
[21] = system: polio virus; format: cell-based; details: Vero cells
[22] = system: adenovirus; format: cell-based; details: A549 cells; remark: listed apart in the source
[23] = system: parainfluenza virus; format: cell-based; details: MA-104 cells; remark: listed apart in the source
[24] = system: respiratory syncytial virus; format: cell-based; details: MA-104 cells; remark: listed apart in the source
[25] = system: rhino virus; format: cell-based; remark: listed apart in the source
[26] = system: coxsackie virus; format: cell-based; details: Coxsackie B4 virus, KB cells; remark: listed apart in the source
[27] = system: influenza virus; format: cell-based; details: Influenza (type A [H3N2]); remark: listed apart in the source
[28] = system: vaccinia virus; format: cell-based; details: Vero cells; remark: listed apart in the source
[29] = system: west nile virus; format: cell-based; details: Vero cells; remark: listed apart in the source
[30] = system: dengue virus; format: cell-based; details: Vero cells; remark: listed apart in the source
[31] = system: venezuelan equine encephalitis virus; format: cell-based; details: Vero cells; remark: listed apart in the source
[32] = system: pichinde virus; format: cell-based; remark: listed apart in the source
[33] = system: polio virus; format: cell-based; details: Vero cells; remark: listed apart in the source
[34] = system: BCBL-1 cells
[35] = system: OAS; assay: OAS activity in serum and plasma of mice (RIA); details: C57BL/6 mice; i.v; 10 μg-250 μg
[36] = system: HHV-8; assay: HHV-8 replication in BCBL-1 cells (TaqMan PCR)
[37] = Maden-Darby Canine Kidney cells

Molecule: IFNα [reference compound]
- CRF2-4 mRNA normalized to HPRT [1]: 3.05
- IFNAR2 mRNA normalized to HPRT [1]: 3.00
- IL-28RA mRNA normalized to HPRT [1]: 2.61
- reduction of the amount of HCV RNA compared to untreated control cell lines [2]: 85%

Molecule: IL-29-CEE: IL-29 conjugated with glu tag
- effect on proliferation of Daudi cells [3]: no significant effect

Molecule: polyinosinic acid-polycytidylic acid [poly I:C]
- amount of IL-28A, IL-29, IL-28B RNA [4]: increased

B1: IL-28A: human IL-28A, previously designated zcyto20, SEQ ID NO:2 (protein, listed as Homo sapiens)
chain: MKLDMTGDCTPVLVLMAAVLTVTGAVPVARLHGALPDARGCHIAQFKSLSPQELQAFKRAKDALEESLLLKDCRCHSRLFPRTWDLRQLQVRERPMALEAELALTLKVLEATADTDPALVDVLDQPLHTLHHILSQFRACIQPQPTAGPRTRGRLHHWLYRLQEAPKKESPGCLEASVTFNLFRLLTRDLNCVASGDLCV
modifications: SIGNAL (1)...(25)
- Percentage Cytopathic Effect ([5]; relative CM concentration .008X): 10%
- Percentage Cytopathic Effect ([5]; relative CM concentration .0156X): 2.5%
- Percentage Cytopathic Effect ([5]; relative CM concentration .0325X): 5%
- Percentage Cytopathic Effect ([5]; relative CM concentration .0625X): 2.5%
- Percentage Cytopathic Effect ([5]; relative CM concentration .125X): 0%
- Percentage Cytopathic Effect ([5]; relative CM concentration .25X): 0%
- Percentage Cytopathic Effect ([5]; relative CM concentration .5X): 0%
- Percentage Cytopathic Effect ([6]; relative CM conc. .008X): 87%
- Percentage Cytopathic Effect ([6]; relative CM conc. .0156X): 87%
- Percentage Cytopathic Effect ([6]; relative CM conc. .0325X): 87%
- Percentage Cytopathic Effect ([6]; relative CM conc. .0625X): 87%
- Percentage Cytopathic Effect ([6]; relative CM conc. .125X): 87%
- Percentage Cytopathic Effect ([6]; relative CM conc. .25X): 87%
- Percentage Cytopathic Effect ([6]; relative CM conc. .5X): 87%
- induction of ICAM-1 [7]: No induction
- induction of ISG-56k, Pkr, 2-5 OAS and phospholipid scramblase [7]: clear induction
- IC50 inhibition of cell death induced by BVDV [8]: 0.02 µg/mL
- ISG gene expression (OAS, Pkr, Mx1) in the livers, spleen and blood of mice [9]: did not induce ISG gene expression
- EC50 Visual [10]: >10 µg/mL
- IC50 Visual [10]: >10 µg/mL
- EC50 Visual [11]: >10 µg/mL
- IC50 Visual [11]: >10 µg/mL
- EC50 Visual [12]: >10 µg/mL
- IC50 Visual [12]: >10 µg/mL
- EC50 Visual ([13]; Rhino 2, KB cells): >10 µg/mL
- IC50 Visual ([13]; Rhino 2, KB cells): >10 µg/mL
- EC50 Visual ([13]; Rhino 9, HeLa cells): >10 µg/mL
- IC50 Visual ([13]; Rhino 9, HeLa cells): >10 µg/mL
- EC50 Visual [14]: >10 µg/mL
- IC50 Visual [14]: >10 µg/mL
- EC50 Visual [15, 37]: >10 µg/mL
- IC50 Visual [15, 37]: >10 µg/mL
- EC50 Visual ([15]; Vero cells): 0.1 µg/mL
- IC50 Visual ([15]; Vero cells): >10 µg/mL
- EC50 Visual [16]: >10 µg/mL
- IC50 Visual [16]: >10 µg/mL
- EC50 Visual [17]: 0.01 ng/mL
- IC50 Visual [17]: >10 µg/mL
- EC50 Visual [18]: 0.01 µg/mL
- IC50 Visual [18]: >10 µg/mL
- EC50 Visual [19]: 0.01 µg/mL
- IC50 Visual [19]: >10 µg/mL
- EC50 Visual [20]: >10 µg/mL
- IC50 Visual [20]: >10 µg/mL
- EC50 Visual [21]: >10 µg/mL
- IC50 Visual [21]: >10 µg/mL
- EC50 NR [22]: >10 µg/mL
- IC50 NR [22]: >10 µg/mL
- EC50 NR [23]: >10 µg/mL
- IC50 NR [23]: >10 µg/mL
- EC50 NR [24]: >10 µg/mL
- IC50 NR [24]: >10 µg/mL
- EC50 NR ([25]; Rhino 2, KB cells): >10 µg/mL
- IC50 NR ([25]; Rhino 2, KB cells): >10 µg/mL
- EC50 NR ([25]; Rhino 9, HeLa cells): 1.726 µg/mL
- IC50 NR ([25]; Rhino 9, HeLa cells): >10 µg/mL
- EC50 NR [26]: >10 µg/mL
- IC50 NR [26]: >10 µg/mL
- EC50 NR [27, 37]: >10 µg/mL
- IC50 NR [27, 37]: >10 µg/mL
- EC50 NR ([27]; Vero cells): 0.25 µg/mL
- IC50 NR ([27]; Vero cells): >10 µg/mL
- EC50 NR [28]: >10 µg/mL
- IC50 NR [28]: >10 µg/mL
- EC50 NR [29]: 0.1 ng/mL
- IC50 NR [29]: >10 µg/mL
- EC50 NR [30]: 0.1 µg/mL
- IC50 NR [30]: >10 µg/mL
- EC50 NR [31]: 0.035 µg/mL
- IC50 NR [31]: >10 µg/mL
- EC50 NR [32]: >10 µg/mL
- IC50 NR [32]: >10 µg/mL
- EC50 NR [33]: >1.672 µg/mL
- IC50 NR [33]: >10 µg/mL
- TC50 [34]: > 10 µg/mL
- OAS activity in the serum and plasma of mice [35]: induced OAS activity
- TI (TC50/IC50) [36]: > 10
- IC50 HHV-8 viral replication ([36]; extracellular HHV-8 DNA): 1 µg/mL
